Laboratory results from patent CN108101970A.

Biological target: 抗Cry1Ab单克隆抗体
Assay: indirect competitive ELISA (chemiluminescence), anti-Cry1Ab mAb coated at 10 μg/mL; competitor: Cry1Ab mimic nanobody (phage 1.0×10^11 pfu or protein 10 μg/mL)

With Cry1Ab标准品 (from UniProt P0A370 29-607) the IC50 was 0.0427 µg/mL.
